Experiment [1] concerns the target T1, human TIGIT expressed on cells (TIGIT/Jurkat cells; MJ[G11] cells; PBMC T cells) (human, UniProt Q495A1 22-244).
T1 construct: The cell line is named under assay; also called human TIGIT-expressing Jurkat cells
T1 sequence: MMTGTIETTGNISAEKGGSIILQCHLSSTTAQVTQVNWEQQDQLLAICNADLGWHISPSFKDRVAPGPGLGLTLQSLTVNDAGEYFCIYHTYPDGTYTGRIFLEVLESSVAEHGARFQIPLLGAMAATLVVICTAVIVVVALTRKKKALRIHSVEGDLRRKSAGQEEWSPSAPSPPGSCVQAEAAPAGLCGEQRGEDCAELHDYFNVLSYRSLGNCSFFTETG
The experiment is described as follows: flow cytometry competition on TIGIT/Jurkat cells; competitor DyLight 650-CD155-human Fc at 1 µg/ml. The text has this:
(§1) Anti-TIGIT antibodies, including hz7D4, and reference antibodies (15A6 and 1D3) were used to compete with CD155 for binding to cells expressing human TIGIT. MJ[G11] (American Type Culture Collection (ATCC), CRL-8294) is a CD3+CD4+T lymphoma cell line carrying human T cell leukemia virus (HTLV-I). MJ[G11] cells were characterized by immunostaining with regulatory T cell phenotypic antibody markers, including CD4, CD25, CD127, and FoxP3, and found to be a regulatory T cell-like cell line (FIG. 9A). Moreover, MJ[G11] cells express human TIGIT constitutively, as shown by immunostaining with PE-conjugated anti-human TIGIT, MBSA43 antibody (FIG. 9B). A sequential 3-fold dilution of anti-TIGIT antibodies was added to 5×10⁵ of human TIGIT-expressing Jurkat cells or 3×10⁵ of MJ[G11] cells in 50 μl FACS buffer (0.2% BSA in DPBS containing 0.09% sodium azide) and incubated on ice for 30 min. Then, 10 μl of DyLight 650-conjugated CD155-human Fc fusion protein were added to the cells, to reach a final concentration of 1 μg/ml for human TIGIT-Jurkat cells and 1.5 μg/ml for MJ[G11] cells, and incubated for 30 min at 4° C. Cells were washed and analyzed by a FACSCalibur cytometer (Becton Dickinson). IC₅₀ values were calculated based on normalized median fluorescence intensity (MFI) values. […]
On the technique in general: In flow cytometry, cells or beads pass a laser one at a time.

In experiment [2] the target is T1, human TIGIT expressed on cells …. The experiment is described as follows: flow cytometry competition on MJ[G11] cells; competitor DyLight 650-CD155-human Fc at 1.5 µg/ml.
Text: as §1

The target in experiment [3] is T2, recombinant human TIGIT IgV domain (human, UniProt Q495A1 22-141, limits assumed).
T2 construct: Made in NS0 or Expi293F cells, purified on Strep-Tactin XT; Biotinylated for phage panning; also called human TIGIT IgV protein; native (Nat) form human TIGIT protein
T2 chain: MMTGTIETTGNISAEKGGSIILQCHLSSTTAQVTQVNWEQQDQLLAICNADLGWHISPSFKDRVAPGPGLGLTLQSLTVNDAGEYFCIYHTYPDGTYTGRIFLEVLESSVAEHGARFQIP
Put plainly: phage display panning on biotinylated human TIGIT IgV domain. How it is done: (§2) The phages were captured by incubation with 50 μl of M280 streptavidin magnetic beads (Thermo Fisher Scientific) for 15 min. Non-specific phages were eliminated by ten washes with PBS/0.1% Tween-20, followed by 10 washes with PBS for 5 min each. Bound phages were eluted with 0.1 M glycine (pH 2.0), neutralized with 1 M Tris-HCl (pH 8.0) and re-infected into log-phase TG1 cells. In the second panning round, phages (10⁹ cfu) were used against 0.1 nM of the biotinylated cyno TIGIT IgV domain.
(§3) The nucleotide sequences of the phage clones that bind to both human and cyno TIGIT IgV domains were determined. All heavy chain CDR3 (HCDR3) clones contain the wild type HCDR3 amino acid sequence of […] (SEQ ID NO: 3). Two light chain CDR3 (LCDR3) clones screened by the light chain library, designated 1A11 and 1E3, contain LCDR3 amino acid sequences of […] (SEQ ID NO: 23) and […] (SEQ ID NO: 24), respectively.

For experiment [4], the target named is T3, cyno TIGIT IgV domain (cynomolgus monkey).
T3 construct: Biotinylated for phage panning; also called biotinylated cyno TIGIT IgV domain; cynomolgus monkey TIGIT
Put plainly: phage display panning on biotinylated cyno TIGIT IgV domain. Here is the method:
as §2, §3

Experiment [5] deals with T4, TIGIT-biotin (TIGIT:CD155 Homogeneous Assay Kit, #72029) (human, UniProt Q495A1 22-141, limits assumed, biotin (site not stated)).
T4 construct: Kit reagent; also called human TIGIT
T4 chain: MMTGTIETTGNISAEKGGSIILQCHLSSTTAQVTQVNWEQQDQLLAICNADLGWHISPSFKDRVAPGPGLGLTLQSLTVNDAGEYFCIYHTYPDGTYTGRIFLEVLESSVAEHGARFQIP
Put plainly: AlphaLISA competition: TIGIT-biotin with antibody, then histidine-tagged CD155 as competitor. Here is the method: To evaluate inhibition of binding of TIGIT to CD155 by anti-TIGIT antibodies, AlphaLISA assays were performed using a TIGIT:CD155 Homogeneous Assay Kit (PBS Biosciences, #72029). Aliquots (6 μl) of solution containing TIGIT-biotin (final concentration 0.2 ng/μl) and 4-fold serial dilution of the test antibodies (final volume 2 μl) were added into a 384-well plate. The plates were covered with a lid and incubated at room temperature for 30 min. Then, 2 μl of histidine-tagged CD155 were added (final concentration 0.05 ng/μl) into each well and incubated at room temperature for 60 min. Finally, aliquots (5 μl) of streptavidin-conjugated donor beads (final concentration 10 μg/ml) and 5 μl of anti-His tag acceptor beads (final concentration 20 μg/ml) were added and the plate was incubated at room temperature for 30 min in the dark. AlphaLISA signals were measured on an EnSpire Alpha 2390 (Perkin-Elmer Life Sciences). 15A6 (U.S. Pat. No. 10,189,902) and MBSA43 (Thermo Fisher Scientific, #16-9500-82) were used as reference antibodies.
These antibodies were selected for further functional studies.
(In general: Alpha assays give light when donor and acceptor beads are brought close together.)

The target in experiment [6] is T5, recombinant mouse TIGIT IgV domain (mouse, UniProt P86176 29-145).
T5 construct: Made in NS0 cells, purified on Strep-Tactin XT; Biotinylated for phage panning; also called biotinylated mouse TIGIT IgV domain
T5 sequence: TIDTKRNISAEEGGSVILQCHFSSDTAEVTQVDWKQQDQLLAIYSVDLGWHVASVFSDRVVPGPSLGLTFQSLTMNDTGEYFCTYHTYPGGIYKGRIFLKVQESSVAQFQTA
The experiment is described as follows: ELISA on coated recombinant TIGIT IgV domain. Here is the method:
To assess species cross-reactivity of anti-TIGIT antibodies 7D4, 2C9, and 3A9, ELISA binding assays to human, cynomolgus monkey, and mouse TIGIT were performed. 1 μg/ml each of human, cyno (R&D Systems, Inc., #9380-TG), and mouse TIGIT in 50 μl of DPBS were coated on 96-well plates at 4° C. for overnight. After washing the plates with phosphate-buffered saline containing 0.05% of Tween 20 (PBST), a sequential dilution of 7D4, 2C9, and 3A9 antibodies was added separately and the plates were incubated at 37° C. for 1 hour. After washing the plates three times with PBST, the plates were incubated with an anti-mouse Fey polyclonal antibody conjugated with horseradish peroxidase (HRP) at 37° C. for 1 hour. After washing the plates three times with PBST, 100 μl of 3,3′,5,5′-tetra-methylbenzidine (TMB) substrate (Thermo Fisher Scientific, #34018) were added into each well. After 5 to 10 min of color development, 50 μl of stop solution (2 N of HCl) were added into each well and plates were read by spectrophotometer at a wavelength of 450 nm.
For orientation: ELISA stands for enzyme-linked immunosorbent assay.

In experiment [7] the target is T1, human TIGIT expressed on cells …. The experiment is described as follows: flow cytometry on TIGIT/Jurkat cells. How it is done: Sequential dilutions of Protein A column-purified 7D4, 2C9, and 3A9 antibodies were separately incubated with 5×10⁵ of human TIGIT-expressing Jurkat cells (TIGIT/Jurkat) in 50 μl of FACS buffer (0.2% BSA in Dulbecco's phosphate-buffered saline (DPBS) containing 0.09% sodium azide) on ice for 1 hour. After washing, the cells were stained with anti-mouse IgG conjugated with PE dyes and antibody binding strength was analyzed by flow cytometry.

Data on three molecules can be found in patent US20230416362A1 (INDUSTRIAL TECHNOLOGY RESEARCH INSTITUTE, published 2023).

T3 sequence (chain, as listed by the source limits assumed): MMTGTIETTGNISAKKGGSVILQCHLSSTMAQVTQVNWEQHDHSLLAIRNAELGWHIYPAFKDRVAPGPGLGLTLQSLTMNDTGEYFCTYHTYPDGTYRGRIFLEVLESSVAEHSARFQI

B1: hz7D4 hIgG1 (antibody, V domains shown)
VH: EVQLVQSGGGLVKPGGSLRLSCAASGYTFTNYWIGWVRQTPGKGLEWVGDIYPGSSFTNSNEKFKGRFTISADKSKNTAYLQMNSLRAEDTAVYYCARLGRGYWYFDVWGQGTLVTVSS
VL: DIVLTQSPATLSASLGERATLSCSASSSVSYIHWYQQKPGQAPKLLIYTTSNLASGVPSRFSGSGSGTDFTLTISSLEAEDFATYYCHQWSRYPTFGGGTKLEIK
notes: Human IgG1 (vector pFUSE-CHIg-hIG1) with human kappa constant region, made in CHO-S cells; also called humanized 7D4; hz7D4 human IgG1
For B1, the IC50 (as a rule, the concentration that inhibits the measured activity by half) in experiment [1] stood at 0.2 nM; in experiment [2], 0.3 nM.

B2: 1A11 scFv phage clone (scFv, V domains shown)
VH: EVQLVQSGGGLVKPGGSLRLSCAASGYTFTNYWIGWVRQTPGKGLEWVGDIYPGSSFTNSNEKFKGRFTISADKSKNTAYLQMNSLRAEDTAVYYCARLGRGYWYFDVWGQGTLVTVSS
VL: DIVLTQSPATLSASLGERATLSCSASSSVSYIHWYQQKPGQAPKLLIYTTSNLASGVPSRFSGSGSGTDFTLTISSLEAEDFATYYCQLFRSGSAFGGGTKLEIK
With B2, the binding result in experiment [3] and in experiment [4] was “binds” each time.

B3: 7D4 (antibody, V domains shown)
VH: QVQLKHSGAELVRPGTSVKMSCKASGYTFTNYWIGWAKQRPGHGLEWIGDIYPGSSFTNSNEKFKGKATLTADKSSSTAYMQFSSLTSEDSAIYYCAKLGRGYWYFDVWGTGTSVTVSA
VL: DIVLTQSPAIMSASLGEEITLTCSASSSVSYIHWYQQKSGTSPKLLIYTTSNLASGVPSRFSGSGSGTFYSLTISSVEAEDAADYYCHQWSRYPTFGGGTKLEIK
notes: Mouse monoclonal antibody from hybridoma clone 7D4, Protein A purified; also called anti-TIGIT monoclonal antibody 7D4; parental mouse 7D4 antibody
For B3, in experiment [5], the IC50 is 0.32 nM. In experiment [6], the EC50 (commonly the concentration giving half of the maximal effect) came out at 10.5 nM. For the same molecule, the affinity in experiment [7], expressed as Kd, was 0.27 nM.
